Data taken from patent publication US7291673B2, “Conjugate addition reactions for the controlled delivery of pharmaceutically active compounds” (Eidgenossiche Technische Hochschule Zurich, priority 2000, dated 2007).
Non-standard residues stand in square brackets, D forms with d. Residues, ends and D or L forms follow the SMILES beside them. No end group written: not given here.

Experiments:
[1] = Water solubility of peptide; type: physicochemical
Protocol: The peptide […] (SEQ ID NO: 58) was designed to be sensitive to hydrolysis by the enzyme plasmin, to contain more than one thiol (cysteine) for addition reaction with conjugated unsaturated groups, and to be very water soluble. The peptide was synthesized according to the methods described above. The peptide was extremely water soluble, up to at least 120 mg/ml.

[2] = cited from earlier work
[3] = tested on: human umbilical vein endothelial cells; experiment: Endothelial cell spreading on photopolymerized PEG gels containing peptides; type: cell-based; conditions: 400 cells per mm^2; normal cell culture medium
Protocol: Polyethylene glycol diacrylate of mol. wt. 8000 (230 mg/ml) was allowed to dissolve in HEPES buffered saline (10 mmol HEPES, Sigma, 8 g/L NaCl, pH 7.4) for one hour. Triethanolamine (Aldrich, 15.3 μl/ml) was added, and the pH of the solution was adjusted to pH 8 with 6 N HCl. Cysteine containing peptides were dissolved in 116.5 μl of HEPES buffered saline, and added to 870 μl of the PEG solution with vortexing. After 5 minutes, 3.5 μl of N-vinyl pyrrolidone and 10 μl of a 10 mM solution of Eosin Y were added, followed by vortexing. Gels were formed by exposure to light at 75 mW/cm^2 for one minute (Cermax Xenon Lightsource, transmitting light between 470 and 520 nm; ILC Technology, Sunnyvale, Calif., USA). Gels were allowed to swell in Tris buffered saline, pH 7.4 (4.36 g Tris HCl, 0.64 g Trizma base, 8 g NaCl, 0.2 g KCl per 1 L, all from Sigma) for 36 hr.
PEG gels were prepared as described above, using the peptide […]. Most cells have receptors that recognize the sequence GRGDSPG (SEQ ID NO: 74), and cells will interact with surfaces displaying immobilized RGD containing peptides. […] Cells were seeded onto the gels at a concentration of 400 cells per mm^2, and the number of spread cells per area were counted at different times (see FIG. 6). […]

[4] = tested on: Human foreskin fibroblasts; experiment: Fibroblast adhesion and spreading on conjugate addition gels; type: cell-based; conditions: 6 hours post-seeding; RGD peptide on one of every 12 acrylates
Protocol: Conjugate addition gels were made with 0.1 g/ml PEG-2500-3A and 1.1 acrylates per sulfhydryl in […]. The gels were swollen for 24 hours in Dulbecco's modified Eagle's medium (some in serum-free conditions and some in 10% fetal bovine serum) containing 1% antibiotic and antimycotic agents. Human foreskin fibroblasts (passage 7; passaged with trypsin/EDTA) were seeded onto the gels. […] The cells became increasingly clumped together. The cellular behavior was independent of serum in the medium. Control cells seeded on tissue culture treated polystyrene spread normally.
Conjugate addition gels were made with PEG-2500-3A, […], and an RGD-containing peptide ([…]) incorporated in a pendant fashion. The gels were made with 0.1 g PEG-2500-3A/ml and 1.1 acrylates per sulfhydryl in […]. The gels were swollen for more than 36 hours in Dulbecco's modified Eagle's medium (some in serum-free conditions and some in 10% fetal bovine serum) containing 1% antibiotic and antimycotic agents. When the RGD peptide was incorporated on one of every 12 acrylates of the PEG-2500-3A, human foreskin fibroblasts (passage 8; passaged by trypsin/EDTA) adhered to the gels (both those swollen in serum-free conditions and those in serum-containing medium). At 6 hours post-seeding, the cells were uniformly distributed over the gel surface, and approximately 50% of the seeded cells were spread (in both medium conditions). […]

plasmin = plasmin (Homo sapiens, UniProt P00747); experiment: Plasmin stability of peptides by analytical C18 HPLC; type: biochemical; conditions: 37° C.; plasmin at 1/1000 the peptide concentration
Excerpt: Analytical C18 HPLC (linear acetonitrile gradient over 0.1% TFA in water) was used to confirm the relative plasmin-stability of GCY-DLys-N-DArg-DCG. The following samples were run: plasmin; […]; plasmin+[…]; GCY-DLys-N-DArg-DCG; and plasmin+GCY-DLys-N-DArg-DCG.

[5] = molecular target: T1, Collagenase (Matrix metalloproteinase I) (Homo sapiens, UniProt P03956); conditions: cited from earlier work
T1 sequence (P03956 100-469): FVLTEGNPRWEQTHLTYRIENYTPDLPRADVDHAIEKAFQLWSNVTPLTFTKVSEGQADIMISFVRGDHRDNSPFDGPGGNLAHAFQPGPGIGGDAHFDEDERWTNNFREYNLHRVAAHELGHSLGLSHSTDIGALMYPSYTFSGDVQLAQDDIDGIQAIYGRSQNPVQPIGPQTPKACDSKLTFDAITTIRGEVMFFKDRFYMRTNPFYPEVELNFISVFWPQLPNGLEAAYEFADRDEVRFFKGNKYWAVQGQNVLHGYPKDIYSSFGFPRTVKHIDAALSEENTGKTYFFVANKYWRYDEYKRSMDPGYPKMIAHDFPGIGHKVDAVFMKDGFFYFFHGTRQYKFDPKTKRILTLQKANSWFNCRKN

[6] = Dissolution of albumin particles in PEG solutions; type: physicochemical
Excerpt: For the gels in which controlled release was observed, protein particles could be seen within the gels for the entire period of release. For all gels, the disappearance of protein particles from the gel was coincident with the completion of delivery of greater than 90% of the protein in the gel. Thus, the solubility of bovine serum albumin in PEG-containing solutions was likely the most important factor in realizing controlled release of the protein. When a solution containing dissolved albumin was mixed with a solution containing dissolved PEG, the albumin precipitated, dependent upon the concentrations and the molecular weight of the PEG. Similarly, when particles of bovine serum albumin were added to a PEG solution, the kinetics of dissolution of the albumin were strongly affected by the presence of PEG. The albumin solids completely dissolved in 50 mM PBS buffer, pH 7.4 in three minutes in the absence of PEG. With 10% PEG molecular weight 8000 in solution, the time to dissolution of the albumin particles increased to six minutes. […] With 20% PEG molecular weight 8000, the protein particles dissolved to form a second liquid phase within one hour. This was presumably a true coacervate with one protein-rich, polymer-poor phase, and one polymer-rich, protein-poor phase.

plasmin, sequence (P00747 581-810 limits assumed, species assumed): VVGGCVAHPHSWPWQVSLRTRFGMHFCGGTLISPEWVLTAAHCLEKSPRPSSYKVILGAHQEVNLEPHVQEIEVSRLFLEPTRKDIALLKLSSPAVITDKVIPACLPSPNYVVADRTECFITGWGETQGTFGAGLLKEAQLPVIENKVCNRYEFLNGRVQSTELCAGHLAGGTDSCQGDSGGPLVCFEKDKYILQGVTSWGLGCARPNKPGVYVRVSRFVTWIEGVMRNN
plasmin, sequence (P00747 97-580 partner limits assumed, species assumed): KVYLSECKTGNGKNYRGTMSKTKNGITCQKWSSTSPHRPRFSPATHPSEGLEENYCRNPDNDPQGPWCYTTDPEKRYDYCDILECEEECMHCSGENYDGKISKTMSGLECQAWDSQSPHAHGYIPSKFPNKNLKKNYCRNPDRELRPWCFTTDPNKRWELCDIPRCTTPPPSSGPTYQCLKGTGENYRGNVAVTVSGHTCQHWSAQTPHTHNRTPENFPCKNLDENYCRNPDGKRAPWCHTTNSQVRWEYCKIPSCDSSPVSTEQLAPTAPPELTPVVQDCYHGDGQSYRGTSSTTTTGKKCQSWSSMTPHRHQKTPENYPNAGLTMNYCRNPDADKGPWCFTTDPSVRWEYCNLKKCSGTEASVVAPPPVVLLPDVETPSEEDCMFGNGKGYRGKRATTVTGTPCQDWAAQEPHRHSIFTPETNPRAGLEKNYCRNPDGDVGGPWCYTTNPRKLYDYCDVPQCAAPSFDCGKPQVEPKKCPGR

N=C(N)NCCC[C@H](NC(=O)[C@H](CC(N)=O)NC(=O)[C@H](CCCCN)NC(=O)[C@H](Cc1ccc(O)cc1)NC(=O)[C@H](CS)NC(=O)CN)C(=O)N[C@@H](CC(=O)O)C(=O)N[C@@H](CS)C(=O)NCC(=O)O (H-GCYKNRDCG-OH; N-terminus and C-terminus assumed)
solubility [1]: ≥ 120 mg/mL

NC(=O)C[C@H](N)C(=O)O [asparagine]
pK of alpha amine ([2]; alpha amine of amino acid): 8.8

NCCCC[C@H](N)C(=O)O [lysine]
pK of side chain epsilon amine ([2]; side chain epsilon amine): 10.80

GCGYGRDGSPG (Based on Homo sapiens)
cell spreading on PEG gels containing peptide [3]: has no biological activity

GCGYGRGDSPG (not fully specified) [RGD-containing adhesion peptide incorporated into gels in a pendant fashion]
seeded cells spread [4]: approximately 50%
cell spreading on PEG gels containing peptide [3]: Cells could only spread on gels that contained the peptide

GCY-DLys-N-DArg-DCG (GCY[dK]N[dR]DCG; cysteine pairing not given here)
degradation of peptide by plasmin (plasmin): unaffected by the plasmin at 24 hours

GPQGIAGQ
kcat/Km relative to that of PQGIAG [5]: 100% (normal)

GPQGIASQ
kcat/Km relative to that of PQGIAG [5]: 130% (fast)

GPQGIFGQ
kcat/Km relative to that of PQGIAG [5]: >300% (faster)

GPQGIWGQ
kcat/Km relative to that of PQGIAG [5]: >700% (very fast)

GPQGRAGQ
kcat/Km relative to that of PQGIAG [5]: <5% (very slow)

GPQGVAGQ
kcat/Km relative to that of PQGIAG [5]: 9% (slower)

GPVGIAGQ
kcat/Km relative to that of PQGIAG [5]: 30% (slow)

albumin: bovine serum albumin (Cohn fraction V), model protein
time to complete dissolution of albumin solids ([6]; 50 mM PBS buffer, pH 7.4, absence of PEG): three
time to dissolution of albumin particles ([6]; 10% PEG molecular weight 8000): six
time to dissolve into a second liquid phase ([6]; 20% PEG molecular weight 8000): one
dissolution of protein ([6]; 30 or 40% PEG molecular weight 8000): did not dissolve after seven days
